Test results from the supplement of paper PMC10126150.
± gives the standard deviation of the averaged measurements.

Test system: ATP
Assay: switch fluorescence ratio, 500 uM ATP over buffer (Cy3 cluster intensity, sum of 5 cycles each) (fold (ratio)); higher = stronger signal-on switching upon ATP binding; sequences stand for … in TCGTCGGCAGCGTCAGATGTGTATAAGAGACAGTTTTTTTTTTTTTTTTTTTTTTTTT…TC
Conditions: aptamer strand: ATP DNA aptamer (quencher-CACCTGGGGGAGTATTGCGGAGGAAGG + anchor), 100 nM annealed; ATP concentration: 500 uM
Summary of the method: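 Cy3-labelled switching-strand clusters on a modified Illumina MiSeq flow-cell were annealed to 100 nM quencher-labelled ATP aptamer and imaged first in selection buffer, then after 15 min with 500 uM ATP at 22 °C. NaOH stripping and re-annealing separated each of five buffer/ATP cycles, and clusters outside 100-1000 RFU were excluded. The fluorescence ratio sums target-cycle Cy3 intensity over buffer-cycle Cy3 intensity per cluster and averages it per switch-domain sequence.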
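Note: ATP exposure 15 min at 22 °C before imaging.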

| Sequence | switch fluorescence ratio |
| --- | --- |
| AGGGTGTTAT | 0.993 ± 0.022 |
| AGGGTGTTTG | 1.01 ± 0.019 |
| AGGGTTAAAT | 1 ± 0.012 |
| AGGGTTAAGT | 1.002 ± 0.0061 |
| AGGGTTACGG | 1.02 ± 0.025 |
| AGGGTTATGT | 0.971 ± 0.03 |
| AGGGTTATTA | 0.9786 ± 0.0025 |
| AGGGTTATTT | 0.998 ± 0.03 |
| AGGGTTGGGC | 1.01 ± 0.021 |
| AGGGTTGTAT | 1.001 ± 0.0037 |
| AGGGTTGTTG | 0.999 ± 0.015 |
| AGGGTTTCTC | 0.989 ± 0.0011 |
| AGGGTTTGAG | 1.11 ± 0.2 |
| AGGGTTTGCT | 0.96929 ± 0.00044 |
| AGGGTTTTAG | 0.994 ± 0.019 |
| AGGTAAAAAG | 1.02 ± 0.017 |
| AGGTAAGGCT | 0.976 ± 0.025 |
| AGGTAATACA | 1.08 ± 0.029 |
| AGGTAATGCA | 1.012 ± 0.0037 |
| AGGTACGACG | 0.99 ± 0.013 |
| AGGTACGGAG | 1.01 ± 0.019 |
| AGGTACGTTT | 1.03 ± 0.02 |
| AGGTACTGTA | 1.01 ± 0.011 |
| AGGTAGAATG | 0.998 ± 0.0045 |
| AGGTAGATGG | 0.995 ± 0.0096 |

| Sequence | switch fluorescence ratio |
| --- | --- |
| AGGTAGCTGT | 1.04 ± 0.053 |
| AGGTAGGCAT | 1 ± 0.041 |
| AGGTAGGGTG | 1.04 ± 0.055 |
| AGGTATTCAG | 1.01 ± 0.033 |
| AGGTATTGG | 1.008 ± 0.0055 |
| AGGTATTGGG | 1.02 ± 0.043 |
| AGGTATTTGA | 0.984 ± 0.054 |
| AGGTCAGCTT | 1.01 ± 0.04 |
| AGGTCAGTAG | 1 ± 0.024 |
| AGGTCATTGA | 1 ± 0.021 |
| AGGTCCGGTG | 1.031 ± 0.0096 |
| AGGTCGATCC | 0.993 ± 0.05 |
| AGGTCGGATG | 1.004 ± 0.0056 |
| AGGTCGGCA | 0.9919 ± 0.0092 |
| AGGTCGGGGG | 0.988 ± 0.029 |
| AGGTGAAAAG | 1.01 ± 0.02 |
| AGGTGAAATC | 1.26 ± 0.34 |
| AGGTGAAATT | 1.11 ± 0.1 |
| AGGTGATGGG | 1.04 ± 0.023 |
| AGGTGATGTG | 0.998 ± 0.028 |
| AGGTGCATTT | 1.08 ± 0.02 |
| AGGTGCTTAC | 1.04 ± 0.037 |
| AGGTGGGAGT | 1.02 ± 0.021 |
| AGGTGGTACA | 0.993 ± 0.03 |
| AGGTGGTAGT | 1 ± 0.012 |

| Sequence | switch fluorescence ratio |
| --- | --- |
| AGGTGTAAAT | 1.003 ± 0.0016 |
| AGGTGTATTG | 1.03 ± 0.017 |
| AGGTGTTATC | 0.9933 ± 0.0015 |
| AGGTGTTCCG | 1.04 ± 0.084 |
| AGGTGTTTAA | 1.03 ± 0.061 |
| AGGTGTTTGC | 1.05 ± 0.028 |
| AGGTTAACTA | 1.02 ± 0.024 |
| AGGTTAAGTA | 1 ± 0.027 |
| AGGTTACAAT | 1.04 ± 0.043 |
| AGGTTACATC | 1.018 ± 0.0016 |
| AGGTTAGACG | 1.01 ± 0.04 |
| AGGTTAGATG | 0.991 ± 0.013 |
| AGGTTATACG | 1.01 ± 0.022 |
| AGGTTCTATT | 0.9864 ± 0.0089 |
| AGGTTGAAAG | 0.974 ± 0.035 |
| AGGTTGGGC | 1.04 ± 0.034 |
| AGGTTGGGGT | 1.01 ± 0.036 |
| AGGTTGGTTA | 0.984 ± 0.029 |
| AGGTTGTATG | 0.97 ± 0.039 |
| AGGTTGTGGG | 1.02 ± 0.022 |
| AGGTTGTTTT | 0.977 ± 0.028 |
| AGGTTTCTCT | 0.966 ± 0.031 |
| AGGTTTGCTC | 1.01 ± 0.011 |
| AGGTTTGGGA | 0.987 ± 0.032 |
| AGGTTTGGGT | 0.998 ± 0.026 |

| Sequence | switch fluorescence ratio |
| --- | --- |
| AGGTTTGTA | 1.04 ± 0.016 |
| AGGTTTGTGG | 0.976 ± 0.023 |
| AGGTTTGTTA | 0.987 ± 0.015 |
| AGGTTTTATT | 0.948 ± 0.023 |
| AGTAAAAAAT | 0.9891 ± 0.0066 |
| AGTAAAATT | 0.9865 ± 0.0036 |
| AGTAAAGTGG | 0.971 ± 0.025 |
| AGTAAAGTGT | 0.99703 ± 0.00028 |
| AGTAAATCTC | 1.04 ± 0.017 |
| AGTAACCAAA | 1.04 ± 0.097 |
| AGTAACGCGG | 0.979 ± 0.014 |
| AGTAAGAGAA | 0.995 ± 0.023 |
| AGTAAGATTG | 0.9889 ± 0.0026 |
| AGTAAGATTT | 1.16 ± 0.15 |
| AGTAAGCCAC | 1.05 ± 0.082 |
| AGTAAGGATC | 1 ± 0.031 |
| AGTAAGGCGC | 1.02 ± 0.045 |
| AGTAAGGGCA | 1.01 ± 0.016 |
| AGTAAGTATG | 1.04 ± 0.054 |
| AGTAAGTCGG | 0.975 ± 0.022 |
| AGTAAGTCTG | 0.969 ± 0.02 |
| AGTAATGAGG | 0.985 ± 0.035 |
| AGTAATTAGG | 1.027 ± 0.0043 |
| AGTAATTGAC | 1.1 ± 0.013 |
| AGTAATTGCG | 0.982 ± 0.034 |
